From US20260374838 (published 2026)
Read-outs that look alike come from different tables or passages of the source.

Columns and labels:
[1] = target: T1, human CD200R1L (human, UniProt Q6Q8B3); assay: SPR, 25C
T1 chain: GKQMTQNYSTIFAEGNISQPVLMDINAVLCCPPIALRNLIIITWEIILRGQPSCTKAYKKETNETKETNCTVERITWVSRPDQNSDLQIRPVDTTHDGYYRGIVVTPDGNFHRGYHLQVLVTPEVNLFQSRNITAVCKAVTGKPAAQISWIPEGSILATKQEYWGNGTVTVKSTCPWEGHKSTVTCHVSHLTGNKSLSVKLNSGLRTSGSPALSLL

[2] = target: T2, human CD200R (human, UniProt Q8TD46); assay: SPR, 25C
T2 chain: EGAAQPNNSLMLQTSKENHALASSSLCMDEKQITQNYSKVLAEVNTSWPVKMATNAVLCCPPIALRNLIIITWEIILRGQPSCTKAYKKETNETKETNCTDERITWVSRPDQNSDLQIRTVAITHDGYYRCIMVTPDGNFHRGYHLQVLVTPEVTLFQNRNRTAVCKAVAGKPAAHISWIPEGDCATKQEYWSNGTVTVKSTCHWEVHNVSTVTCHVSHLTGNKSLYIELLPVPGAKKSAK

[3] = target: T3, murine CD200R1 (mouse, UniProt Q9ES57); assay: SPR, 25C
T3 chain: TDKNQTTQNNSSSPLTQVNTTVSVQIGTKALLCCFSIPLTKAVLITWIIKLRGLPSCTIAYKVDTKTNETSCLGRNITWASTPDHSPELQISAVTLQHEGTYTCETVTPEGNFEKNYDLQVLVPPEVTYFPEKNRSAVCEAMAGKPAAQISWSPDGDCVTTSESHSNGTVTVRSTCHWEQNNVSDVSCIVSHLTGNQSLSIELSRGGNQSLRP

[4] = target: T2, human CD200R; assay: SPR, 25C
[5] = target: T3, murine CD200R1; assay: SPR

Binder	binding result [1]	binding result [3]	Kd [5] [nM]	Kd [2] [nM]	Kd [4] [nM]
DS-20 (antibody, wild-type CD200 ectodomain fused to human IgG1 Fc (dimer); UniProt numbering) QVQVVTQDEREQLYTPASLKCSLQNAQEALIVTWQKKKAVSPENMVTFSENHGVVIQPAYKDKINITQLGLQNSTITFWNITLEDEGCYMCLFNTFGFGKISGTACLTVYVQPIVSLHYKFSEDHLNITCSATARPAPMVFWKVPRSGIENSTVTLSHPNGTTSVTSILHIKDPKNQVGKEVICQVLHLGTVTDFKQTVNKG	no binding	no binding		111	
DS-155 (antibody, wild-type CD200 ectodomain fused to human IgG4 S228P Fc (dimer); UniProt numbering) QVQVVTQDEREQLYTPASLKCSLQNAQEALIVTWQKKKAVSPENMVTFSENHGVVIQPAYKDKINITQLGLQNSTITFWNITLEDEGCYMCLFNTFGFGKISGTACLTVYVQPIVSLHYKFSEDHLNITCSATARPAPMVFWKVPRSGIENSTVTLSHPNGTTSVTSILHIKDPKNQVGKEVICQVLHLGTVTDFKQTVNKG	no binding	no binding		179	179
DS-198 (protein, wild-type murine CD200 fused to murine IgG2a Fc) QVEVVTQDERKALHTTASLRCSLKTSQEPLIVTWQKKKAVSPENMVTYSKTHGVVIQPAYKDRINVTELGLWNSSITFWNTTLEDEGCYMCLFNTFGSQKVSGTACLTLYVQPIVHLHYNYFEDHLNITCSATARPAPAISWKGTGTGIENSTESHFHSNGTTSVTSILRVKDPKTQVGKEVICQVLYLGNVIDYKQSLDKG			584		

More lines, main results first:

binding result [1]	binding result [3]	Kd [5] [nM]	Binder	Kd [2] [nM]	Kd [4] [nM]
		43.3	DS-227 (protein) QVEVVTQDERKALHTTASLRCSLKTSQEPLIVTWQKKKAVSPENMVTYSKTYGVVIQPAYKDRINVTELGLWNSSITFWNTTLEDEGCYMCLFNIFGSQKVSGTACLTLYVQPIVHLHYNYFEDHLNITCSATARPAPAISWKGTGTGIENSTESHFHSNGTTSVTSILRVKDPKTQVGKEVICQVLYLGNVIDYKQSLDKG		
no binding	no binding		DS-118 (antibody) QVQVVTQDEREQLYTPASLKCSLQNAQEALIVTWQKKKAVSPENMVTFSENHGVVIQPAYKDKINITQLGLQNSTITFWNITLEDEGCYMCLFNTFGFGYYSGTACLTVYVQPIVSLHYKFSEDHLNITCSATARPAPMVFWKVPRSGIENSTVTLSHPNGTTSVTSILHIKDPKNQVGKEVICQVLHLGTVTDFKQTVNKGPPCPPCPAPEFLGGPSVFLFPPKPKDTLMISRTPEVTCVVVDVSQEDPEVQFNWYVDGVEVHNAKTKPREEQFNSTYRVVSVLTVLHQDWLNGKEYKCKVSNKGLPSSIEKTISKAKGQPREPQVYTLPPSQEEMTKNQVSLTCLVKGFYPSDIAVEWESNGQPENNYKTTPPVLDSDGSFFLYSRLTVDKSRWQEGNVFSCSVMHEALHNHYTQKSLSLSLGK	1.3	1.3
